B1: rhIL-12RB2-Fc (Fc fusion, human, UniProt Q99665 24-622, looked up, not shown: a dimerising Fc or GST)
chain: KIDACKRGDVTVKPSHVILLGSTVNITCSLKPRQGCFHYSRRNKLILYKFDRRINFHHGHSLNSQVTGLPLGTTLFVCKLACINSDEIQICGAEIFVGVAPEQPQNLSCIQKGEQGTVACTWERGRDTHLYTEYTLQLSGPKNLTWQKQCKDIYCDYLDFGINLTPESPESNFTAKVTAVNSLGSSSSLPSTFTFLDIVRPLPPWDIRIKFQKASVSRCTLYWRDEGLVLLNRLRYRPSNSRLWNMVNVTKAKGRHDLLDLKPFTEYEFQISSKLHLYKGSWSDWSESLRAQTPEEEPTGMLDVWYMKRHIDYSRQQISLFWKNLSVSEARGKILHYQVTLQELTGGKAMTQNITGHTSWTTVIPRTGNWAVAVSAANSKGSSLPTRINIMNLCEAGLLAPRQVSANSEGMDNILVTWQPPRKDPSAVQEYVVEWRELHPGGDTQVPLNWLRSRPYNVSALISENIKSYICYEIRVYALSGDQGGCSSILGNSKHKAPLSGPHINAITEEKGSILISWNSIPVQEQMGCLLHYRIYWKERDSNSQPQLCEIPYRVSQNSHPINSLQPRVTYVLWMTALTAAGESSHGNEREFCLQGKAN

In one experiment the target is T1, AK384.
T1 construct: Masked IL-12 heterodimer, IL-12Rβ1 (24-237) mask; tested uncleaved
As to the kind of experiment: SPR, IL-12 receptor immobilised, IL-12 construct flowed, 25 C, FIGS. 35A-35D. As to the method:
(§1) Sensor Chips were coated and immobilized with IL-12 receptors. Dilutions of IL-12 constructs were flowed over the chips with the immobilized IL-12 receptors to determine the on rate at 25 degrees C. At equilibrium (approximately 3-4 minutes), the flow buffer was changed to PBST, to determine the off rates over 6 minutes. Between each run the chip was regenerated. The tables represent the SPR data (FIGS. 34 and 35).

In the experiment “rhIL-12RB2-Fc” the target is B1. As to the kind of experiment: SPR, IL-12 receptor immobilised, IL-12 flowed, 25 C, FIGS. 35A-35D. As to the method: as §1
For orientation: In SPR one partner is held on a chip, and binding of the other changes the refractive index at the surface.

For the next experiment, the target named is rhIL-12RB1-Fc (human, UniProt P42701 24-545, limits assumed). The experiment in a line: SPR, IL-12 receptor immobilised, IL-12 flowed, 25 C, FIGS. 34A-34D. As to the method: as §1

On to B1, for which the binding result with AK384 is reported as “binds”.

B2: recombinant human IL-12 (rhIL-12) control (ligand)
chain 1: IWELKKDVYVVELDWYPDAPGEMVVLTCDTPEEDGITWTLDQSSEVLGSGKTLTIQVKEFGDAGQYTCHKGGEVLSHSLLLLHKKEDGIWSTDILKDQKEPKNKTFLRCEAKNYSGRFTCWWLTTISTDLTFSVKSSRGSSDPQGVTCGAATLSAERVRGDNKEYEYSVECQEDSACPAAEESLPIEVMVDAVHKLKYENYTSSFFIRDIIKPDPPKNLQLKPLKNSRQVEVSWEYPDTWSTPHSYFSLTFCVQVQGKSKREKKDRVFTDKTSATVICRKNASISVRAQDRYYSSSWSEWASVPCS
chain 2: RNLPVATPDPGMFPCLHHSQNLLRAVSNMLQKARQTLEFYPCTSEEIDHEDITKDKTSTVEACLPLELTKNESCLNSRETSFITNGSCLASRKTSFMMALCLSSIYEDLKMYQVEFKTMNAKLLMDPKRQIFLDQNMLAVIDELMQALNFNSETVPQKSSLEEPDFYKTKIKLCILLHAFRIRAVTIDRVMSYLNAS
notes: also called wild-type rhIL-12
For the molecule B2, the binding result in the experiment with rhIL-12RB2-Fc and in the experiment with rhIL-12RB1-Fc was “binds” in each case.

These data come from US20230159603A1 (XILIO DEVELOPMENT, published 2023).
